Measurements from the nanobody polyreactivity screen of Harvey et al. (2022).

Experiment: yeast display, Sf9 membrane polyspecificity reagent, FACS + sequencing; frameworks hold sequencing errors
Method in brief: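 Sorting gates, low and high (top ~1%), were placed on anti-HA fluorescence to track expression and on streptavidin fluorescence to track reagent binding. A clone's polyreactivity label is taken from the gate it came out of. The reagent was 10% biotinylated, detergent-solubilized Sf9 membrane, applied for 1 hour at 4 °C to galactose-induced yeast display cells.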

| Sequence | polyreactivity (PSR sort gate) |
| --- | --- |
| QVQLVESGGGLVQAGGSLRLSCAASGRIFLVYVMGWYRQAPGKERELVAAISASDGSTYYADSVKGRFTISRDNAKNTVYLQMNSLKPEDTAVYYCAEWGYSLDSNSYRELNYWGQGTQVTVSS | low polyreactivity |
| QVQLVESGGGLVQAGGSLRLSCAASGRIFLYAMGWYRQAPGKERELVAAINSGGSTNYADSVKGRFTISRDNAKNTVYLQMNSLKPEDTAVYYCAAEVLYWYRYYYWGQGTQVTVSS | low polyreactivity |
| QVQLVESGGGLVQAGGSLRLSCAASGRIFLYYAMGWYRQAPGKERDFVAAITYIGGSTYYADSVKGRFTISRDNAKNTVYLQMNSLKPEDTAVYDCATDGYRIDVYHPVYRYDYWGQGTQVTVSS | low polyreactivity |
| QVQLVESGGGLVQAGGSLRLSCAASGRIFNEYAMGWYRQAPGKERELVAAITYSDDSTYYADSVKGRFTISRDNAKNTVYLQMNSLKPEDTAVYYCNADTPVWDGHAYPVDYWGQGTQVTVSS | low polyreactivity |
| QVQLVESGGGLVQAGGSLRLSCAASGRIFNKNAMGWYRQAPGKERELVAAITYSGGSTYYADSVKGRFTISRDNAKNTVYLQMNSLKPEDTAVYYCARDLYYVYSFAPYRYEYWGQGTQLTVSS | low polyreactivity |
| QVQLVESGGGLVQAGGSLRLSCAASGRIFNLNAMGWYRQAPGKERELVAAISKSGTRTYYADSVKGRFTISRDNAKNTVYLQMNSLKQEDTAVYYCAAEALYYDRLGWVYLRYDYWGQGTQVTVSS | high polyreactivity |
| QVQLVESGGGLVQAGGSLRLSCAASGRIFNLYDMGWYRQAPGKERELVAAIRIGDRTYYADSVKGRFTISRDNAKNTVYLQMNSLKPEDTAVYYCNREYLSNRDKRFYYWGQGTQVTVSS | low polyreactivity |
| QVQLVESGGGLVQAGGSLRLSCAASGRIFNLYGMGWYRQAPGKEREFVATITWSGVTTYADSVKGRFTISRDNAKNTVYLQMNSLKPEDTAVYYCAADYRYRTRWYDYWGQGTQVTVSS | high polyreactivity |
| QVQLVESGGGLVQAGGSLRLSCAASGRIFNNYAMGWYRPAPGKERELVAAISTSGGSTYYADSVKGRFTISRDNAKNTVYLQMNSLKPEDTAVYYCNAVSRKRHYAPSYDYWGQGTQVTVSS | high polyreactivity |
| QVQLVESGGGLVQAGGSLRLSCAASGRIFNPNAMGWDRQAPGKERELVAAISTSGDSTYADSVKGRFTISRDNAKNTVYLQMNSLKPEDTAVYYCAATSGRRTTRWGRYGYWGQGTQVTVSS | high polyreactivity |
| QVQLVESGGGLVQAGGSLRLSCAASGRIFNQYAMGWYRQAPGKERELVAAISRRGGSTYYADSVKGRFTISRDNAKNTVYLQMNSLKPEDTAVYYCAAVGGYASYFHLYYYWGQGSQVTVSS | high polyreactivity |
| QVQLVESGGGLVQAGGSLRLSCAASGRIFNQYGMGWYRQAPGKERELVASITLTDGSTYYADSVKGRFTISRDNAKNTVYLQMNSLKPEDTAVYYCAARISGGSTFRYQRMYYWGQGTQVTVSS | low polyreactivity |
| QVQLVESGGGLVQAGGSLRLSCAASGRIFNRNAMGWYRQAPGKERELVASISSGGRTNYADSVKGRFTISRDNAKNTVYLLMNSLKPEDTAVYYCAAKSPRILLDYWGQGTQVTVSS | low polyreactivity |
| QVQLVESGGGLVQAGGSLRLSCAASGRIFNRNAMGWYRQAPGKERELVASISSGGRTNYADSVTGRFTISRDNAKNTDYLQMNSLKPEDTAVYYCAAKSPRILLDYWGQGTQVTVSS | low polyreactivity |
| QVQLVESGGGLVQAGGSLRLSCAASGRIFNRYAMGWYRQAPGKEREFVARITGSGGRTYYADSVKGRFTISRDNAKNTVYLQMNSLKPEDTAVYYCARDRGYQSGYDYWGQGTQVTVSS | high polyreactivity |
| QVQLVESGGGLVQAGGSLRLSCAASGRIFNRYAMGWYRQAPGKERELVAAISSRGGSTFYADSVKGRFTISRDIAKNTVYLQMNSLKPVDTAVYYCATAWHRGVRGRTSGAFDYWGQGTQVTVSS | high polyreactivity |
| QVQLVESGGGLVQAGGSLRLSCAASGRIFNRYTMGWYRQAPGKERELGAAISKSGGSTYYADSVKGRFTISRDNAKNTVYVQMNSLKPEDTAVYDCAAPPRLYRWHGGDYWGQGTQVTVSS | high polyreactivity |
| QVQLVESGGGLVQAGGSLRLSCAASGRIFNSNTMGWYRQAPGKERELVAAIRGSGGSTYADSVKGRFTISRDNAKNTVYLQMNSLKPEDTAVYYCAASPRRWYTPDAVSTYRMYYWGQGTQVTVSS | high polyreactivity |
| QVQLVESGGGLVQAGGSLRLSCAASGRIFNSNTMGWYRQAPGKERELVAAITYSGGSTYYADSVKGRFTISRDNAKNTVYLQMNSLKPEDTAVYYCAADFWEYDGPWYANDYDSWGQGTQVTVSS | low polyreactivity |
| QVQLVESGGGLVQAGGSLRLSCAASGRIFNSYAMGWSRQAPGKERELVAAISSGGSTYYADSVKGRFTISRDNAKNTVYLQMKRLKPEDTAVYYCAARIWNGRGRKLGYGYDYWGQGTQVTVSS | low polyreactivity |
| QVQLVESGGGLVQAGGSLRLSCAASGRIFNSYAMGWYIQAPGKERELVAAISSGGSTYYADSVKGRFTISRDNAKNTVYLQMNSLKPEDTAVYYCAARIWTGRGRKLGYGYDYWGQGTQVTVSS | low polyreactivity |
| QVQLVESGGGLVQAGGSLRLSCAASGRIFNSYAMGWYRQAPGKERELVAAINWTDVSTYYADSVKGRFTISRDNAKNTVYLQMNSLKPEDTAVYYFAAVRWGSYTLSDDYWGQGTQVTVSS | low polyreactivity |

| Sequence | polyreactivity (PSR sort gate) |
| --- | --- |
| QVQLVESGGGLVQAGGSLRLSCAASGRIFNVNVMGWYRQAPGKERELVASINWSGTSTYYADSVKGRFTISRDNAKNTVYLQMNSLKPEDTAVYYCAADLALYNTLYLTLPDYYWGQGTQVTVSS | low polyreactivity |
| QVQLVESGGGLVQAGGSLRLSCAASGRIFNWYVMGWYRQAPGKERELVAAINSGGITKYADSVKGRFTISRDNAKNTVYLQMNSLKPEDTAVYYCAAYYRRYDYDYWGQGTQVTVSS | high polyreactivity |
| QVQLVESGGGLVQAGGSLRLSCAASGRIFNYNAMGWYRQAPGKERELVAAITRSTGNTYYADSVKGRFTISRDNAKNTVYLQMNSLKPEDTAVYYCAAAYAYWRKYDYWGQGTQVTVSS | high polyreactivity |
| QVQLVESGGGLVQAGGSLRLSCAASGRIFNYYAMGWSRQAPGKERELVAAIRTGGSTYYADSVKGRFTISRDNAKNTVYLQMNSLKPEDTAVYYCARLVYYSSPYGYWGQGTQVTVSS | high polyreactivity |
| QVQLVESGGGLVQAGGSLRLSCAASGRIFNYYAMGWYRQAHGKERELVAVITYSAGRTYYADSVKGRFTISRDNAKNTVYLQMNSLKPEDTAVYNCNADGWVSVSKHYYYWGQGTQVTVSS | low polyreactivity |
| QVQLVESGGGLVQAGGSLRLSCAASGRIFPAYAMGWYKQAPGKERELVASIRRGGITYADSVKGRFTISRDNAKNTVYLQMNSLKPEDTAVYYCNADYRGWGYHMDYWGQGTKVTVSS | low polyreactivity |
| QVQLVESGGGLVQAGGSLRLSCAASGRIFPAYAMGWYRKAPGKETELVAAISWRSGSTYYAHSVKGRFTISRDNAKNTVYLQMNSLKPEDTAVYYCAAEYDWPGYDYWGQGTQVTVSS | high polyreactivity |
| QVQLVESGGGLVQAGGSLRLSCAASGRIFPDNTMGWSRQAPGKERELVAVITYSGGSTYYADSVKGRFTISRDNAKNTVYLQMNSLKPEDTAVYYCAKTLGSQNYDFDYWGQGTQVTVSS | low polyreactivity |
| QVQLVESGGGLVQAGGSLRLSCAASGRIFPDNTMGWYRQAPGTERELVAAITSSGGSTYYADSVKGRFTISRDNAKNTVYLQMNSLKPEDTAVYYCAAAVKRGYAQSFISDGYGYWGQGTQVTVSS | low polyreactivity |
| QVQLVESGGGLVQAGGSLRLSCAASGRIFPFNAMGWYRQAPGKEREFVAAIRLSGTRTYYADSVKGRFTISRDNAKNTVYLQMNSLKPEDTAVYYCAAKYSGHYYNYDYWGQGTQVSVSS | high polyreactivity |
| QVQLVESGGGLVQAGGSLRLSCAASGRIFPFYDMGWYRQAPGKERELVAAISTSGGSTYYADSVKGRFTISRDNAKNTVYLQMNSLKPEDTAVYYCNAQRALRSTYDSWGQGTQVTVSS | low polyreactivity |
| QVQLVESGGGLVQAGGSLRLSCAASGRIFPGNAMGWYRQAPGKESELVAAISKSGGSTYYADSVKGRFTISRDNAKNTVYLQMNSLKPEDTAVYYCAKLYYPVSDQYDYYYWGQGTQVTVSS | low polyreactivity |
| QVQLVESGGGLVQAGGSLRLSCAASGRIFPGNPMGWYRQATGQERELVAGISFSGGRTYYADSVKGRFTISRDNAKNTVYLQIISLKPEDTAVYYCATKYQQHCWSYDYWGQGTQVTVSS | low polyreactivity |
| QVQLVESGGGLVQAGGSLRLSCAASGRIFPGNTMGWYRQAPGKERELVAAISSSTGNTYYADSVKGRFTISRDNAKNTVYLQMNSLKPEDTAVYYCAARTRQISIVGYNYWGQGTQVTVSS | high polyreactivity |
| QVQLVESGGGLVQAGGSLRLSCAASGRIFPGYAMGLYRQAPGKERELVAAISKGGGSTSYADSVKGRFTISRDNAKNTVYFQMNSLKPEDTAVYFCAARQAWRWTYDYWGQGTQVSVSS | high polyreactivity |
| QVQLVESGGGLVQAGGSLRLSCAASGRIFPGYAMGWYRPAPGKERELVAAISKSGVSTYYADSVKGRFTISCDNAKNTVYLQMNSLKPEDTAVYYCAAVSYSYFSRGYRTFQLAYWGQGTQVTVSS | high polyreactivity |
| QVQLVESGGGLVQAGGSLRLSCAASGRIFPHYAKGWYRQAPGKERELVAAISSGGRTNYADSVKGRFTISRDNAKNTVYIQMNSLKPEDTAVYYYAVDDYVYEMDYWGQGTQVTVSS | high polyreactivity |
| QVQLVESGGGLVQAGGSLRLSCAASGRIFPISAMGWYRQAPGKERVLVAAIDSGGSTTYADSVKGRFTISRDNEKNTVYLQMNSLKPEDSADYYCAAKGAYPYWYPVGYRYDYWGQGTQVTVSS | low polyreactivity |
| QVQLVESGGGLVQAGGSLRLSCAASGRIFPIYAMGWYRQAPGKERELVAAISRTDGTTYYADSVKGRFTISRDYANNTVYLQMNSLKPEDTAVYYCAADYLRAPYYQYEYWGQGTQVTVSS | low polyreactivity |
| QVQLVESGGGLVQAGGSLRLSCAASGRIFPKYAMGWYRQAPGKERELVAAIRWSGGNTYYADSVKGRFTISRDNAKNTVYLQMNSLKPEDTAVYYCAATPYVSKYYYFGHDYWGQGTQVTVSS | high polyreactivity |
| QVQLVESGGGLVQAGGSLRLSCAASGRIFPNNAMGWYRQAPGKERELVAAITSIGGSTYYADSVKGRFTISRDNAKNTVYLQMNSLKPEDTAVYYCAARWERFVPTGRFSYYYYYWGQGTQVTVSS | high polyreactivity |
